# In the domain aggregation screens of Martell et al. (2025):
# Test: soluble fraction after stress (log2 fold change); higher = more stays soluble; pooled small domains, quantitative proteomics
# Conditions: stress: 75 degC
# 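Also: 20 min heating vs room temperature control held 20 min.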
row,Sequence,soluble fraction (log2)
1,HMGVMTGAEFVGNTVASVERNLIIDTLKHTMGNRTTAANILGISIRTLRNKLKQYQNEGFDIPE,-1.11
2,HMGVPELHKGEIVQAVVEKVLGEGLLRVNLKGMTVEAATSLRLNPGQQLLLRSEGIENGRQVLR,0.275
3,HMGVQKGKDNALAVQQWIAERDATGDFGEYERRGIINRSALFDELGIPRSSMGSNDQIRQMIEAADVRWF,-0.47
4,HMGVREIIVQFLEQFDKPKSVQEIVEYVLRYRNTTENSIRSTMYSGSQFRQFDNGYFGLSDKSYPNEYIYA,-1.49
5,HMGVRLAPEVDRIPYGQMHPNLKKVKDLYEASYKAYVQALSSGNQALAKEKLEEFQSTKARYQRALSAYT,0.305
6,HMGVRVEVDAVTPPGAMASGSVVFSDGESKKWSVDQFGRLAMTGGAPDYKPSDQDVMEFQQQLEQSL,0.125
7,HMGVSAGQVRGLIRNLIAGEDKSKPLSDLALERELEKREIRISRRTVAKYRAELGIPNSDQRRYLP,-1.68
8,HMGVSLKEIQENLSLIDDAAQKLASGQGTVDDAVGMGNAGKDIYDNIEGYVSSPKEFINGVLSSV,-0.0252
9,HMGVSVNVQPAILDWAMQKAQMGNAGSSVIEMIAKWISGEKAPTFNQIEDVSKKISIPFGFFFLKEPPIE,-2.05
10,HMGVTGYPNPTREHITWDDARRIEVWNAYGVPVADLRFARGVLDVAGWPVGTYVARIDGGRSVRFVVI,-1.05
11,HMGVTVDEVHRNFESGMNVVHKKFGAGVVDSFDEGKIRINFDGVIKVFIADVLINSGMLESVSYTH,-0.832
12,HMGWEDLVGKTAVVKVALAPVGMVFFRGEFWSAISETGRIEPGEEVTISRIDGLKLYVTKKRIM,-3.89
13,HMGWEPTPVLVAARDISGGTVLDQDMLRVEAIPSRLVTPSIVRSDLLASVQDAKLLLPMKQGDLLNFNMLQ,-0.0591
14,HMGWVMLVIMSRGASEAQINAVVEKIRAAGLTEHLSKGIERTIIGAIGEERKLEPEVFELLPGVEQALHIV,-2.2
15,HMGYDSYDADTIPKLKIGSIVEHPKFGEGSIISKAGAEVTIAFKIKGVKKINLEYTSIKVLK,-1.67
16,HMGYGEQEQEAQKYLALHALMSQDPTLAKMYQAPNQYKLMSHVMEQNGIKNVNDYLTDPQQLP,-0.157
17,HMGYKDIDKLSGVDLAIYRFIVEHDEQIPYMRVRELARGAHVSNSSVMRFIRKIGYDSFPEFKVSLRS,-0.0854
18,HMGYPGLGSIGSKPLGDLLFQSKLFVKTKREFAEFKMANNNIVWGRRTQYLVRNYPLSVMEVFL,-0.0522
19,HMHAGQIISQKIKESGISISHVAKHLKVQRATLYNLFEREVWPAHRLRTIEALLHIDLSDLYP,-2.61
20,HMHANAALTPRQRLRLAQKIVDEEWTVAAAADYFRVSWPTAAKWARRYVELGEAGMADRSSRP,-2.55
21,HMHDEKHHQLANEIARKWAALRGNRDFAAADELKNLAAEAGVELQATKQAVGQGALAKLKENFDPVKLEAL,0.192
22,HMHDLDALTGLSGEARSKVYEEGSVFVAGEMWSAKSDAVIPAGSSIRVVRREGFILVVEKDS,-2.48
23,HMHDYTTIIGVIELRLNKISYDNVQKRYRIGRSGISLIMERYRDSGLSLDDLKQMPAEKVVNLIYPKD,-2.88
24,HMHDYYDSIDAVTHDKSYESNLVFALKLGYTETQLQKALLKLGKKAREDQILEELIRIQKSSKA,-0.362
25,HMHEGNWTLPNPMPIGTTLTLPEHSRLYISNLAGQRVFETSATSVEIPLLPKGTYLLRLETMNGHTTRKIL,-0.106
26,HMHELKIEKVAEAPNGAMRLLLSDGSEWVLGVKSWNRLNLSLEKILDVNVLRALEKESQYHLLRTKALEL,-1.39

row,Sequence,soluble fraction (log2)
1,HMHFIMEYRIRAYVDELFESAPRTQRAYELKIELTQNLIDKYYALVSEGKSEQDAYNLTVMSIGDVREL,-3.01
2,HMHGEAVVVPNVKGLPMRQAENEIYKQSLKAVAIDSSYVKGMPPGAILEQNPAGGSKVKKGRTVYLTINMD,-0.268
3,HMHGERVVTAGQTVRVVFTSNGLQVSSEGKALAAGAVGDDIQVRAASGKVIRGTVTGPGVVQV,0.233
4,HMHGLNQNKPIPIADIVNSVNNYLTSLGKKTITDNSVLSNLKKAAKYLNTAYNLVLRPDSLNMTVTLL,0.323
5,HMHIMINPDQLSPEQIQSIRTWAEEGLDLNAIQKRLHEDLNIKLTFMDTRFLLQDLDIRIRQPEPEPEAEQ,-0.208
6,HMHINLEGLKKIDFRKKIGFLFGSEASGLSNKEVSYANYTLQIPTNINFKSLNLSHSLIIIAQFISSLLNS,-0.55
7,HMHKIRRQTKITKSLLDQIEGIGSSRKKALLNHFGSAKAVGEAGETDLGTVKGISNSLAKKIYDFFHAT,-0.545
8,HMHLDIGQLVQRILADIQVGKLADGQRKLPAEPVLMERYQVTRYTLRQALKQLSNMGYTYQMHGIGTFVRQ,-1.79
9,HMHLKDEHGLTPKQRAFADEYVITLNATVSYKKIYSVKRDSVASTNGSRLLGNANVKAYIDKRLEE,-2.26
10,HMHLKRQEAINLGAYLLGAELRIHRLSLEELGSERIDEMLAAINYKTLDDLLADIGLGNRPARFVARQLG,-1.86
11,HMHLLGASIAAYRKKAGMTQEDLGRALFVSGQAVSRWERGGTPDSDMLPKIADVLGISLDTLFGRS,-1.57
12,HMHLRYTYIYDNENRVTSKEASKWDSTQEAWVPYFKMNVSYVNNEVELSYARWNSKSNAYDSSIKKTI,-2.54
13,HMHLTNIPKGFTPSFDTKQWIVEEFGERYNYDNELKIFINHYRASGTTKSDWQYAFRSWLLRAKKFT,-2.83
14,HMHLTRYLHTMIRAANLDDTLDFFVEKLGLIEAYRYSNEAGRFTLVFLSAPDDLESAQSRQAPLVEITYN,-1.32
15,HMHLYDMYNLTEKEISIIRLIANGLNNKEISQELFLSEGTIKNNITNILAKLELRDRTQLAIFAFKNKIVI,-3.6
16,HMHMELHEKIRLARELNKWSQEEVAEKLEMSPSGYAKIERGETALNIPRLEQIAEIFNIDIWELVKA,-1.04
17,HMHMHTADDFKQLAKHTSNGRLRTRYLALYHFKKGETRTQIAAYLGVARGSVNTWVSNYLAYGLEGLQS,-2.53
18,HMHMIDDYLARIGQLIRDARQHRGWTQVQLAEALGTSQSAVNRIERGNQNISLEMIARIGEALGSEIVSLG,-2.24
19,HMHMKTIEWDSLVLIMYKDMKYLKRINEGQSFHGKGGMLNYADLIGKTYGIRFGQYEIFEPSLEDIVMYG,-0.0889
20,HMHMSKKLADSISALRKKNGLSQEQLAEKIGISRQTVSNWERGIATPDVETLNLISKLFDEDLSVMING,-0.073
21,HMHNISQTGRRIAGMTQERWAEALDISVESVRLYESGRGMPSDDVATRMVEVSGAPVLGYWH,-0.458
22,HMHNPSYDMSKDVDILVMKFRDYNNLTDDEARFLLDKAKDAYYNTGKEILSDNEYDTLEKSLGQE,-0.000671
23,HMHPEPDPVLFIDGKEYPYDKLSELDETRVQSMTILPKKSAVKKYGDKYANRSIMEITLKKEN,0.119
24,HMHPNPLTEQEIAVLKGIAQGLSNQEIADQLYLSNGTVRNYVTNILSKLDAGNRTEAANIAKESGW,0.00139
25,HMHPSNQELTKVLAQGSELVLAQKYIEASQIFTRVIEIDQTWAEAWNKRATVFYLLQNYEASQKDIDEV,0.0525
26,HMHQKELLNLSYKEAKRYILDDFERVFFTNLLRKTGGNVSRAAQLAQVHRKNLYVKLTELGIDPRQFG,-1.53

row,Sequence,soluble fraction (log2)
1,HMHQLQLDSRSRLHMTGVIEVESFDEATIVLTTTRGTLIVRGENLHLQLLRLDGGEVLVDGTVDSLSYE,-2.67
2,HMHQPPDLDDFEAFVGRVKPALLQALVATYGPVDGREATVDALSWAWEHWDRLADVDHPVGYLYRV,-0.0172
3,HMHRFAVLDTVREVAAGGVAATLSIGVGRDADSFDALFKNASMALEMALSRGGDQAVVKDRMNFQFYGG,0.153
4,HMHRGEIVDGVIASVNPRSILIDIGGKSDALVHPRELERMSDEDLRSLKPGQDVSVYVIETDSDGTMLVSL,0.0809
5,HMHSEISGGSKDPFRFMPHLGVEDIHAETDRLSGSGVEFIREPDQESWGGWVATFKDPDGNILQLLQL,0.197
6,HMHSQVFTDPDKAKNAVVKLGAPLVVKADGLALGKGVIIAQNPQAAKEAVASVGSSGISSISVT,0.126
7,HMHTDDDGITEAFPHLRLLSLGEDILDLLEKSRFIRKLNNELVYYVVDFREQNSIDGRRYHPSIYHNL,-0.437
8,HMHTGEVVNGKVIDVKEDQIILNVGFKSDGIITRSEYSNDNSLDLRTVVNVGDDMEAKVLKINDGEGQVLL,-0.242
9,HMHTGLAELTDRERDVLRLIATGMTNAAIGSALAYSPSTIRADTVSIYRKLEVRGRAEAAAVAVAAGLTQP,-1.72
10,HMHTPSGALLSAIEKEWGSFDNFKKEFTTAATSLFGSGWVWLAKDKKGKLYILSENNAGNPITKGYTPILG,-0.359
11,HMHVLNEEYYNRIKAIQFTMNHDDGNSLNDIEKSDIILLGVSRTSKTPTSIYLANRGLRTSNIPLINEK,-0.655
12,HMHVSLADQAYKTIRTNILNLTYPPGTQLTEAKLASDLNMSRSPVRTAIKMLQADGLLVSDYYKSMTVK,-1.21
13,HMHVYSYPAAVKIKNAVGREMMVTLLGRSGTHVQFARQDGEEFVYPISSLDLAAQTLISKYPNDGIKN,-0.895
14,HMIAALEGKQAMVLDQVSLHHGQVKLGGEVWTARPLNDQDVYEPGDRVTVMRIDGATAVVWRN,-0.472
15,HMIAASPVGGIDRVLELLDARGQRVAWIEASGTEGGQRLRLGWIDAQGAERHGAWVPWSADDLLLYA,-0.739
16,HMIAASQVLRDARQRSRLTQAELGRRADVPQSVISAYESARREPSVDMLARLVAAAGFDLRIGLTP,-0.755
17,HMIADPLVINKLMDSMALAINDYNPDSVEPVLDELRQYFSENQLRELSKAMDDFDFDEALNALTLLRT,-0.185
18,HMIALKNLREEKRMTQAELSKDLEISPSAIGMYEQGRRVPDVSTLKKISAYFNVSIDYLLGNSTSKDI,-0.626
19,HMIALLRLGTAPDIKAQAPLATILARHNGEMSAKDLWQRFGGEIDTFYAQLKTEVAHGWILEPT,-2.34
20,HMIAVLKQGVSKQQVENLITWFRSRGLDVHISEGKFQTIIGLIGDTSKVDIDLLNGLEIIESVKRI,-0.344
21,HMIAVSQEQIKQIIVDDPSFHDANGKFSQALLTQYLNQRRMSEDQFVEEIRDQFLFQNLQNLVQNG,0.278
22,HMIDAAHLEKAILSLPEGARAVFVLIETEGFAHREVAELLGISEGTSKSQLNYAKKRLREILV,-0.266
23,HMIDAKTTLQELTQKSGKKPEYRLIKIEGPDHLRRFTVEVFIDGQSMGTGTGHSKKEAEQNAANFALKNLQ,-0.00455
24,HMIDEQDLKKYILISTSVEELTDYLGATDRMLYDYLYSLKHVGQYWQLNERFLLDLYKLPNLVIVDKEDLE,-0.172
